Measured values: paper PMC9346500
pKd: −log10 of the molar value.

Biological target: full-length (FL) UBQLN2 (UniProt Q9UHD9)
Test: NMR titration

pKd: 5.52
Substance: ubiquitin (Ub) (from UniProt P0CG48 1-76) (natural protein; other documents disagree on this pair)
